Paper PMC3827151, “Methionine Mutations of Outer Membrane Protein X Influence Structural Stability and Beta-Barrel Unfolding” (PLoS ONE, 2013)
Numbering of substitutions follows the chain as printed. In names and notes the source's numbering stands.

B1: Outer membrane protein X H100N (OmpX^HN) (natural protein, E. coli, UniProt P0A917 24-171, looked up)
chain: ATSTVTGGYAQSDAQGQMNKMGGFNLKYRYEEDNSPLGVIGSFTYTEKSRTASSGDYNKNQYYGITAGPAYRINDWASIYGVVGVGYGKFQTTEYPTYKNDTSDYGFSYGAGLQFNPMENVALDFSYEQSRIRSVDVGTWIAGVGYRF
notes: also called OmpX H100N
B2: Outer membrane protein X H100N:M18L:M21L:M118L quadruple mutant (OmpX^M) (natural protein, E. coli, UniProt P0A917 24-171, looked up)
chain: B1 chain with M18L, M21L, M118L
notes: the 'initiator' Met is kept; PDB 1QJ8 is the parent OmpX^HN; also called Met-less construct

Biological target: the molecule itself
Experiment: SDS-PAGE of unboiled samples (gel mobility shift); protein in 8 M urea diluted 20-fold into LDAO, DPC, 60PC or DMPC in 20 mM Tris-HCl pH 9.5, slow folding at 40°C for 3 h; samples not centrifuged; bands of folded and unfolded monomer and dimer

| Protein | binding result |
| --- | --- |
| B1 | binds |
| B2 | binds |
